# From patent US20260049160A1 (Hoffmann-La Roche, published 2026)
# T1: human Ang-2-RBD-Fc (human, UniProt O15123 275-496, limits assumed)
# T1 construct: domain: RBD; not shown: Fc part
# T1 sequence (looked up): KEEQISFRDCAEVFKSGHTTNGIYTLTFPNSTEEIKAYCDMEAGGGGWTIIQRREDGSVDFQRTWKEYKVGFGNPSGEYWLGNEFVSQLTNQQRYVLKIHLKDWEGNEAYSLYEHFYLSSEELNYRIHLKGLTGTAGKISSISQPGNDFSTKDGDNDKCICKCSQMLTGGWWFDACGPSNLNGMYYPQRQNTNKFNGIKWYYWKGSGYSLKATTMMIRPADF
# T2: human VEGF-A-121-His (human, UniProt P15692-9 27-147)
# T2 construct: also called VEFG-A-121-His; not shown: His tag
# T2 sequence (looked up): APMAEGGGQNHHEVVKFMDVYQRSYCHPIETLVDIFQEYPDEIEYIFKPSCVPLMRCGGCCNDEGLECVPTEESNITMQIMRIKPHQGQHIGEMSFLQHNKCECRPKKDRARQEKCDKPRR
# Columns and labels:
# human Ang-2-RBD-Fc = target: T1, human Ang-2-RBD-Fc; test: SPR (Biacore T200), antibody captured via anti-human F(ab')2, Ang2-RBD-Fc in solution, apparent KD, 1:1 Langmuir
# Experimental: Binding of indicated antibodies to human Ang-2-RBD-Fc was investigated by surface plasmon resonance using a BIACORE™ T200 instrument (GE Healthcare). […] HBS-N (10 mM HEPES, 150 mM NaCl pH 7.4, GE Healthcare) was used as running buffer during the immobilization procedure. For the following kinetic characterization, sample and running buffer was PBS-T (10 mM phosphate buffered saline including 0.05% Tween® 20) at pH 7.4. The flow cell was set to 25° C.—and the sample block set to 12° C.—and primed with running buffer twice prior to kinetic characterization.
# The bispecific antibody was captured by injecting a 5 nM solution for 25 sec at a flow of 5 μl/min. The association was measured by injection of human Ang2-RBD-Fc in various concentrations in solution for 120 sec at a flow of 30 μl/min starting with 100 nM in 1:3 serial dilutions. The dissociation phase was monitored for up to 180 sec and triggered by switching from the sample solution to running buffer. The surface was regenerated by 60 sec washing with a Glycine pH 2.1 solution at a flow rate of 30 μl/min. Bulk refractive index differences were corrected by subtracting the response obtained from a goat anti human F(ab′)₂ surface. Blank injections are also subtracted (=double referencing). For calculation of apparent KD the Langmuir 1:1 model was used.
# human VEGF-A-121-His = target: T2, human VEGF-A-121-His; test: SPR (Biacore T200), VEGF-A-121-His captured via anti-His, antibody in solution, 1:1 Langmuir
# Experimental: HBS-N (10 mM HEPES, 150 mM NaCl pH 7.4, GE Healthcare) was used as running buffer during the immobilization procedure. For the following kinetic characterization, sample and running buffer was PBS-T (10 mM phosphate buffered saline including 0.05% Tween® 20) at pH 7.4. The flow cell was set to 25° C.—and the sample block set to 12° C.—and primed with running buffer twice prior to kinetic characterization.
# The association was measured by injection of the indicated antibodies in various concentrations in solution for 180 sec at a flow of 30 μl/min starting with 1000 nM in 1:3 serial dilutions. The dissociation phase was monitored for up to 600 sec and triggered by switching from the sample solution to running buffer. The surface was regenerated by 60 sec washing with a Glycine pH 1.5 solution at a flow rate of 30 μl/min. Bulk refractive index differences were corrected by subtracting the response obtained from a anti His antibody surface. Blank injections are also subtracted (=double referencing). For calculation of KD and other kinetic parameters the Langmuir 1:1 model was used.
Binder,Kd (human Ang-2-RBD-Fc) [nM],Kd (human VEGF-A-121-His) [nM]
"Ang2VEGF-0273 (bispecific antibody, human IgG1, kappa, Bivalent CrossMab, non-crossed ANG2 arm and VH/VL-crossed VEGF arm; wild type CH1/CL interface (control)) light 1: QPGLTQPPSVSVAPGQTARITCGGNNIGSKSVHWYQQKPGQAPVLVVYDDSDRPSGIPERFSGSNSGNTATLTISRVEAGDEADYYCQVWDSSSDHYVFGTGTKVTVLRTVAAPSVFIFPPSDEQLKSGTASVVCLLNNFYPREAKVQWKVDNALQSGNSQESVTEQDSKDSTYSLSSTLTLSKADYEKHKVYACEVTHQGLSSPVTKSFNRGEC heavy 1: not shown heavy 2: not shown light 2: EVQLVESGGGLVQPGGSLRLSCAASGYTFTNYGMNWVRQAPGKGLEWVGWINTYTGEPTYAADFKRRFTFSLDTSKSTAYLQMNSLRAEDTAVYYCAKYPHYYGSSHWYFDVWGQGTLVTVSSASVAAPSVFIFPPSDEQLKSGTASVVCLLNNFYPREAKVQWKVDNALQSGNSQESVTEQDSKDSTYSLSSTLTLSKADYEKHKVYACEVTHQGLSSPVTKSFNRGEC",15,6
"Ang2VEGF-0283 (bispecific antibody, human IgG1, lambda, Bivalent CrossMab; knobs-into-holes) light 1: QPGLTQPPSVSVAPGQTARITCGGNNIGSKSVHWYQQKPGQAPVLVVYDDSDRPSGIPERFSGSNSGNTATLTISRVEAGDEADYYCQVWDSSSDHYVFGTGTKVTVLGQPKAAPSVTLFPPSSKKLQANKATLVCLISDFYPGAVTVAWKADSSPVKAGVETTTPSKQSNNKYAASSYLSLTPEQWKSHRSYSCQVTHEGSTVEKTVAPTECS heavy 1: not shown heavy 2: not shown light 2: EVQLVESGGGLVQPGGSLRLSCAASGYTFTNYGMNWVRQAPGKGLEWVGWINTYTGEPTYAADFKRRFTFSLDTSKSTAYLQMNSLRAEDTAVYYCAKYPHYYGSSHWYFDVWGQGTLVTVSSASVAAPSVFIFPPSDEQLKSGTASVVCLLNNFYPREAKVQWKVDNALQSGNSQESVTEQDSKDSTYSLSSTLTLSKADYEKHKVYACEVTHQGLSSPVTKSFNRGEC",15,4
"Ang2VEGF-0282 (bispecific antibody, human IgG1, kappa, Bivalent CrossMab; knobs-into-holes) light 1: QPGLTQPPSVSVAPGQTARITCGGNNIGSKSVHWYQQKPGQAPVLVVYDDSDRPSGIPERFSGSNSGNTATLTISRVEAGDEADYYCQVWDSSSDHYVFGTGTKVTVLRTVAAPSVFIFPPSDKRLKSGTASVVCLLNNFYPREAKVQWKVDNALQSGNSQESVTEQDSKDSTYSLSSTLTLSKADYEKHKVYACEVTHQGLSSPVTKSFNRGEC heavy 1: not shown heavy 2: not shown light 2: EVQLVESGGGLVQPGGSLRLSCAASGYTFTNYGMNWVRQAPGKGLEWVGWINTYTGEPTYAADFKRRFTFSLDTSKSTAYLQMNSLRAEDTAVYYCAKYPHYYGSSHWYFDVWGQGTLVTVSSASVAAPSVFIFPPSDEELKSGTASVVCLLNNFYPREAKVQWKVDNALQSGNSQESVTEQDSKDSTYSLSSTLTLSKADYEKHKVYACEVTHQGLSSPVTKSFNRGEC",14,4
"Ang2VEGF-0285 (bispecific antibody, human IgG1, kappa, Bivalent CrossMab; knobs-into-holes) light 1: QPGLTQPPSVSVAPGQTARITCGGNNIGSKSVHWYQQKPGQAPVLVVYDDSDRPSGIPERFSGSNSGNTATLTISRVEAGDEADYYCQVWDSSSDHYVFGTGTKVTVLRTVAAPSVFIFPPSDKRLKSGTASVVCLLNNFYPREAKVQWKVDNALQSGNSQESVTEQDSKDSTYSLSSTLTLSKADYEKHKVYACEVTHQGLSSPVTKSFNRGEC heavy 1: not shown heavy 2: not shown light 2: EVQLVESGGGLVQPGGSLRLSCAASGYTFTNYGMNWVRQAPGKGLEWVGWINTYTGEPTYAADFKRRFTFSLDTSKSTAYLQMNSLRAEDTAVYYCAKYPHYYGSSHWYFDVWGQGTLVTVSSASVAAPSVFIFPPSDEELKSGTASVVCLLNNFYPREAKVQWKVDNALQSGNSQESVTEQDSKDSTYSLSSTLTLSKADYEKHKVYACEVTHQGLSSPVTKSFNRGEC",14,4
"Ang2VEGF-0284 (bispecific antibody, human IgG1, kappa, Bivalent CrossMab; knobs-into-holes) light 1: QPGLTQPPSVSVAPGQTARITCGGNNIGSKSVHWYQQKPGQAPVLVVYDDSDRPSGIPERFSGSNSGNTATLTISRVEAGDEADYYCQVWDSSSDHYVFGTGTKVTVLRTVAAPSVFIFPPSDKRLKSGTASVVCLLNNFYPREAKVQWKVDNALQSGNSQESVTEQDSKDSTYSLSSTLTLSKADYEKHKVYACEVTHQGLSSPVTKSFNRGEC heavy 1: not shown heavy 2: not shown light 2: EVQLVESGGGLVQPGGSLRLSCAASGYTFTNYGMNWVRQAPGKGLEWVGWINTYTGEPTYAADFKRRFTFSLDTSKSTAYLQMNSLRAEDTAVYYCAKYPHYYGSSHWYFDVWGQGTLVTVSSASVAAPSVFIFPPSDEQLKSGTASVVCLLNNFYPREAKVQWKVDNALQSGNSQESVTEQDSKDSTYSLSSTLTLSKADYEKHKVYACEVTHQGLSSPVTKSFNRGEC",13,4
"Ang2VEGF-0286 (bispecific antibody, human IgG1, kappa, Bivalent CrossMab; knobs-into-holes) light 1: QPGLTQPPSVSVAPGQTARITCGGNNIGSKSVHWYQQKPGQAPVLVVYDDSDRPSGIPERFSGSNSGNTATLTISRVEAGDEADYYCQVWDSSSDHYVFGTGTKVTVLRTVAAPSVFIFPPSDKKLKSGTASVVCLLNNFYPREAKVQWKVDNALQSGNSQESVTEQDSKDSTYSLSSTLTLSKADYEKHKVYACEVTHQGLSSPVTKSFNRGEC heavy 1: not shown heavy 2: not shown light 2: EVQLVESGGGLVQPGGSLRLSCAASGYTFTNYGMNWVRQAPGKGLEWVGWINTYTGEPTYAADFKRRFTFSLDTSKSTAYLQMNSLRAEDTAVYYCAKYPHYYGSSHWYFDVWGQGTLVTVSSASVAAPSVFIFPPSDEELKSGTASVVCLLNNFYPREAKVQWKVDNALQSGNSQESVTEQDSKDSTYSLSSTLTLSKADYEKHKVYACEVTHQGLSSPVTKSFNRGEC",12,4
"Ang2VEGF-0395 (bispecific antibody, human IgG1, kappa, Bivalent CrossMab; knobs-into-holes) light 1: QPGLTQPPSVSVAPGQTARITCGGNNIGSKSVHWYQQKPGQAPVLVVYDDSDRPSGIPERFSGSNSGNTATLTISRVEAGDEADYYCQVWDSSSDHYVFGTGTKVTVLRTVAAPSVFIFPPSDKQLKSGTASVVCLLNNFYPREAKVQWKVDNALQSGNSQESVTEQDSKDSTYSLSSTLTLSKADYEKHKVYACEVTHQGLSSPVTKSFNRGEC heavy 1: not shown heavy 2: not shown light 2: EVQLVESGGGLVQPGGSLRLSCAASGYTFTNYGMNWVRQAPGKGLEWVGWINTYTGEPTYAADFKRRFTFSLDTSKSTAYLQMNSLRAEDTAVYYCAKYPHYYGSSHWYFDVWGQGTLVTVSSASVAAPSVFIFPPSDEQLKSGTASVVCLLNNFYPREAKVQWKVDNALQSGNSQESVTEQDSKDSTYSLSSTLTLSKADYEKHKVYACEVTHQGLSSPVTKSFNRGEC",15,4
"Ang2VEGF-0396 (bispecific antibody, human IgG1, kappa, Bivalent CrossMab; knobs-into-holes) light 1: QPGLTQPPSVSVAPGQTARITCGGNNIGSKSVHWYQQKPGQAPVLVVYDDSDRPSGIPERFSGSNSGNTATLTISRVEAGDEADYYCQVWDSSSDHYVFGTGTKVTVLRTVAAPSVFIFPPSDEKLKSGTASVVCLLNNFYPREAKVQWKVDNALQSGNSQESVTEQDSKDSTYSLSSTLTLSKADYEKHKVYACEVTHQGLSSPVTKSFNRGEC heavy 1: not shown heavy 2: not shown light 2: EVQLVESGGGLVQPGGSLRLSCAASGYTFTNYGMNWVRQAPGKGLEWVGWINTYTGEPTYAADFKRRFTFSLDTSKSTAYLQMNSLRAEDTAVYYCAKYPHYYGSSHWYFDVWGQGTLVTVSSASVAAPSVFIFPPSDEQLKSGTASVVCLLNNFYPREAKVQWKVDNALQSGNSQESVTEQDSKDSTYSLSSTLTLSKADYEKHKVYACEVTHQGLSSPVTKSFNRGEC",17,3
"Ang2VEGF-0397 (bispecific antibody, human IgG1, kappa, Bivalent CrossMab; knobs-into-holes) light 1: QPGLTQPPSVSVAPGQTARITCGGNNIGSKSVHWYQQKPGQAPVLVVYDDSDRPSGIPERFSGSNSGNTATLTISRVEAGDEADYYCQVWDSSSDHYVFGTGTKVTVLRTVAAPSVFIFPPSDEKLKSGTASVVCLLNNFYPREAKVQWKVDNALQSGNSQESVTEQDSKDSTYSLSSTLTLSKADYEKHKVYACEVTHQGLSSPVTKSFNRGEC heavy 1: not shown heavy 2: not shown light 2: EVQLVESGGGLVQPGGSLRLSCAASGYTFTNYGMNWVRQAPGKGLEWVGWINTYTGEPTYAADFKRRFTFSLDTSKSTAYLQMNSLRAEDTAVYYCAKYPHYYGSSHWYFDVWGQGTLVTVSSASVAAPSVFIFPPSDEQLKSGTASVVCLLNNFYPREAKVQWKVDNALQSGNSQESVTEQDSKDSTYSLSSTLTLSKADYEKHKVYACEVTHQGLSSPVTKSFNRGEC",14,4
"Ang2VEGF-0394 (bispecific antibody, human IgG1, kappa, Bivalent CrossMab; knobs-into-holes) light 1: QPGLTQPPSVSVAPGQTARITCGGNNIGSKSVHWYQQKPGQAPVLVVYDDSDRPSGIPERFSGSNSGNTATLTISRVEAGDEADYYCQVWDSSSDHYVFGTGTKVTVLRTVAAPSVFIFPPSDKQLKSGTASVVCLLNNFYPREAKVQWKVDNALQSGNSQESVTEQDSKDSTYSLSSTLTLSKADYEKHKVYACEVTHQGLSSPVTKSFNRGEC heavy 1: not shown heavy 2: not shown light 2: EVQLVESGGGLVQPGGSLRLSCAASGYTFTNYGMNWVRQAPGKGLEWVGWINTYTGEPTYAADFKRRFTFSLDTSKSTAYLQMNSLRAEDTAVYYCAKYPHYYGSSHWYFDVWGQGTLVTVSSASVAAPSVFIFPPSDEQLKSGTASVVCLLNNFYPREAKVQWKVDNALQSGNSQESVTEQDSKDSTYSLSSTLTLSKADYEKHKVYACEVTHQGLSSPVTKSFNRGEC",12,3
"Ang2VEGF-0274 (bispecific antibody, human IgG1, kappa, Bivalent CrossMab; knobs-into-holes) light 1: QPGLTQPPSVSVAPGQTARITCGGNNIGSKSVHWYQQKPGQAPVLVVYDDSDRPSGIPERFSGSNSGNTATLTISRVEAGDEADYYCQVWDSSSDHYVFGTGTKVTVLRTVAAPSVFIFPPSDKKLKSGTASVVCLLNNFYPREAKVQWKVDNALQSGNSQESVTEQDSKDSTYSLSSTLTLSKADYEKHKVYACEVTHQGLSSPVTKSFNRGEC heavy 1: not shown heavy 2: not shown light 2: EVQLVESGGGLVQPGGSLRLSCAASGYTFTNYGMNWVRQAPGKGLEWVGWINTYTGEPTYAADFKRRFTFSLDTSKSTAYLQMNSLRAEDTAVYYCAKYPHYYGSSHWYFDVWGQGTLVTVSSASVAAPSVFIFPPSDEQLKSGTASVVCLLNNFYPREAKVQWKVDNALQSGNSQESVTEQDSKDSTYSLSSTLTLSKADYEKHKVYACEVTHQGLSSPVTKSFNRGEC",17,3
